From paper PMC11401910, “Dual client binding sites in the ATP-independent chaperone SurA” (Nature Communications, 2024)

Assays:
SurA-WT = molecular target: T1, SurA-WT (Escherichia coli, UniProt P0ABZ6); format: binding; conditions: pH 8
T1 construct: made in house; host or cells: E. coli BL21(DE3)
Experimental: All NMR experiments were performed on a 950-MHz Bruker Ascend Avance III HD NMR spectrometer equipped with either a Bruker 3 mm TCI or 5 mm TXO triple-resonance cryogenically cooled probe. Peptide binding experiments were performed in 5 mM EDTA, 20 mM Tris-HCl, pH 8.0 with 5 % (v/v) D2O at 25 °C. Binding experiments using full-length OMP sequences also contained 0.8 M urea. Data was acquired for ~16 h with the exception of OMP-containing experiments which were acquired for ~5 h. […] (2D ^1H-^13C SOFAST-HMQC)[70]. […] Errors in the intensity ratios for each peak between two spectra were obtained by propagating the errors according to:1 δR=R*δX/X+δY/Y where δR is the error in the intensity ratio, |R| is the value of the intensity ratio, X and Y are the intensity values for the peak in the first and second spectrum, respectively, and δX and δY are the noise floor values for the first and second spectrum, respectively.
Z-scores for intensity ratio and CSP data were calculated using:3 Zi=xi−μ/σ where xi is the value for a particular peak, and µ and σ are the mean and standard deviation for all peaks, respectively.
For assignment of SurA-WT Ile and Met residues (43 in total) each residue was individually mutated (Supplementary Table 3), and the effect of the mutation assessed by methyl-TROSY NMR. Samples contained 5–70 µM SurA variant. […]

SurA = conditions: read-out: Kd, binding of full-length unfolded OmpX to SurA; cited from earlier work
Source text: (where Ar is an aromatic residue and X is any amino acid), or aromatic-enriched sequences containing an Ar-X-Ar-X-Pro motif. […] Both of these types of peak changes (shifts and/or broadening), can report on binding or conformational changes caused by binding at the location of the corresponding ^13CH3 probe[73],[74].

OmpX = conditions: ~75 pM double-labelled OmpX, 30 μM SurA variant, 20 mM Tris-HCl, 0.1 M urea, 0.02% Tween-20, pH 8.0, ~21 °C; apo-OmpX ~0.85
Experimental: Samples were measured at a volume of 100 μL in an 18 well sample chamber (81817, Ibidi) with the focal spot 50 μm above the cover glass on a custom-built confocal microscope (Supplementary Methods) at room temperature (~21 °C). […] Aged Trolox was prepared by adding 1 mM of Trolox to measurement buffer and incubating the sample overnight at room temperature on a rotary shaker to dissolve before being filtered using a 0.22 μm pore size membrane. Tween-20 (0.02% v/v) was added to prevent non-specific absorption to the glass slide.
The ptu files from the SymPhoTime64 software were converted into HDF5 data files using phconvert v0.9 (available at https://github.com/Photon-HDF5/phconvert). Each of these files was then merged to create one file for each condition. […] Firstly, the background was independently calculated for every 60 s period of measurement. […]
BVA[68] was used to assay for dynamics on the ms timescale occurring during bursts. This analysis compares the expected variance in Eraw based on shot noise against the measured variance in Eraw in each individual burst (si). […] To calculate si, we segmented each burst into consecutive windows of 5 photons, and calculated the standard deviation of all windows within the burst. […]

T1 sequence (P0ABZ6 other isoform, or with tags, fused parts or gaps): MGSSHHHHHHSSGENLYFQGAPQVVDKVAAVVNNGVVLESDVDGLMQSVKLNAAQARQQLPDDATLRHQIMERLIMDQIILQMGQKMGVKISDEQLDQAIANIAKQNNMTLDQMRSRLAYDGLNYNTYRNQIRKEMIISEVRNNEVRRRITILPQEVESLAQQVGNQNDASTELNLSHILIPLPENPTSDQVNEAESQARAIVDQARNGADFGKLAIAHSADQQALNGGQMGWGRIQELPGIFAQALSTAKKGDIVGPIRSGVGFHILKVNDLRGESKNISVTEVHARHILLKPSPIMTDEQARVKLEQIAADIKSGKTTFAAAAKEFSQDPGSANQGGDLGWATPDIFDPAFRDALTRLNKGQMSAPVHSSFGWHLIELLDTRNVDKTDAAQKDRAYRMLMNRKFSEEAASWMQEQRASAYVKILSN

B1: OmpX: unfolded E. coli outer membrane protein OmpX, mature sequence residues 24-171 (protein)
chain: ATSTVTGGYAQSDAQGQMNKMGGFNLKYRYEEDNSPLGVIGSFTYTEKSRTASSGDYNKNQYYGITAGPAYRINDWASIYGVVGVGYGKFQTTEYPTYKHDTSDYGFSYGAGLQFNPMENVALDFSYEQSRIRSVDVGTWIAGVGYRF
Interaction of unfolded OMP with SurA-WT domains by methyl-TROSY NMR, in words (SurA-WT): regions in the core and P1 domains directly interact with OmpX, while P2 is largely uninvolved in OmpX binding | Kd (SurA): ~1000 nM

B2: SurA-core: SurA construct lacking both PPIase domains (residues 172-389 deleted) (protein)
chain: APQVVDKVAAVVNNGVVLESDVDGLMQSVKLNAAQARQQLPDDATLRHQIMERLIMDQIILQMGQKMGVKISDEQLDQAIANIAKQNNMTLDQMRSRLAYDGLNYNTYRNQIRKEMIISEVRNNEVRRRITILPQEVESLAQQVGNQNDASDAAQKDRAYRMLMNRKFSEEAASWMQEQRASAYVKILSN
modifications: left off: His6, N-terminal, state not stated
Maximum of the raw FRET distribution (Eraw) of OmpX bound to SurA variant (OmpX): ~ 0.45
